Reference: patent US20210047373A1, “BETA BARREL POLYPEPTIDES AND METHODS FOR THEIR USE” (UNIVERSITY OF WASHINGTON, priority 2018, published 2021)
Positions count from the first letter of the chain named. “And” between values parts separate entries of the source, which are not always exact repeats. Identical values can stand only once. Like-named read-outs stand apart in the source and are kept apart here. Marks after values point to notes of the source that are not given here.

B1: mFAP2: SEQ ID NO:38; variant of b11L5F.1 with 6-residue insertion in the seventh β-turn (protein)
chain: MSRAAQLLPGTWQVTMTNEDGQTSQGQMHFQPRSPYTMDVVAQGTISDGRPISGYGKVTVKTPDTLDVDITYPSLGNIKAQGQITMDSPTQFKFDATTKGAGNFTGRLTGTLQRQE
modifications: (1)..(1) optionally absent
B2: mFAP2.1: SEQ ID NO:40 (protein)
chain: B1 chain with P51T, S53V
modifications: (1)..(1) optionally absent
B3: mFAP2.2: SEQ ID NO:41 (protein)
chain: B1 chain with S53V
modifications: (1)..(1) optionally absent

Tests used:
[1] = cited from earlier work
[2] = Photophysical characterization (absorbance, excitation, emission, extinction coefficient, quantum yield); assay type: physicochemical
[3] = unbound, free DFHBI in liquid buffer; Paige et al., 2011; cited from earlier work
[4] = Chromophore titration, fit to single binding site isotherm: DFHBI-1T; conditions: n=1 titration; ± SD of the fit; Table 3C
Description: (§1) Table 3A-C. Brightness and chromophore affinities of selected mFAP variants. Fluorescence brightness measurements at 10 μM (top table) and 100 nM (middle table) chromophore concentrations were normalized from 0 to 1 across all three chromophores (DFHBI, DFHBI-1T, and DFHO), and the normalized values for two protein concentrations tested for each chromophore at each chromophore concentration were averaged and standard deviations of the average computed. Reported values are the normalized averages and standard deviations of the means for each chromophore concentration and each chromophore. Reported relative densitometry values are the relative densitometry values normalized from 0 to 1 and represent how well each design expresses relative to one another in Lemo21(DE3) E. coli cultures. Thermodynamic dissociation constants (bottom table) are obtained by non-linear least squares fitting of chromophore titrations (n=1) to a single binding site isotherm, and values reported with the standard deviation of the fit. Where the obtained Kd values are below the protein concentration tested, the Kd and standard deviation of the fit are reported in parentheses. Values with “N/D” were not determined.

[5] = Fluorescence activation / brightness with DFHBI; assay type: biochemical; conditions: normalized 0 to 1 across all three chromophores; average ± SD of two protein concentrations
Description: (§2) Fluorescence binding assay. Protein-activated DFHBI fluorescence signals were measured in 96-well plate format (Corning 3650) on a Synergy neo2 plate reader (BioTek, Inc) with λex=450 nm or 460 nm and λem=500 nm or 510 nm. Binding reactions were performed at […] in PBS pH7.4 buffer. Protein concentrations were determined by 280 nm absorbance as described above. DFHBI (Lucerna, Inc) were resuspended in DMSO as instructed to make 100 mM stock and diluted in PBS to 0.5-10 μM. Approximate emission spectra were recorded for active designs from 490 to 600 nm.
as §1

[6] = Chromophore titration, fit to single binding site isotherm: DFHO; conditions: n=1 titration; ± SD of the fit; Table 3C
Description: as §1

[7] = Chromophore titration, fit to single binding site isotherm: DFHBI
Description: as §2, §1

[8] = Fluorescence brightness with DFHO; assay type: biochemical; conditions: normalized 0 to 1 across all three chromophores; average ± SD of two protein concentrations
Description: as §1

[9] = Fluorescence brightness with DFHBI-1T; assay type: biochemical; conditions: normalized 0 to 1 across all three chromophores; average ± SD of two protein concentrations
Description: as §1

[10] = system: E. coli, yeast, and mammalian cells; test: Confocal imaging of cells expressing mFAPs with DFHBI; assay type: cell-based; conditions: 20 μM DFHBI
Description: To determine whether the designed DFHBI-binding fluorescence-activating proteins function in living cells, we imaged mFAP1- and mFAP2-DFHBI complexes in E. coli, yeast, and mammalian cells by confocal microscopy. […] The quantum yield of mFAP1 and mFAP2 in complex with DFHBI is 2.0% and 2.1% respectively (Table 2).
Confocal image acquisition. Mammalian cell imaging of mFAP1 and mFAP2 was performed in NIH3T3 cells (Flp-In-3T3, Thermo Fisher Scientific, Inc). NIH3T3 cells were cultured in high-glucose DMEM, 4 mM L-glutamine, 10% fetal bovine serum (FBS, Life Technologies, Inc) at 37 degrees Celsius, 5% CO2. Cells were plated at 4×10^4 cells/mL in 35 mm glass-bottomed dishes (Matek, Inc) that were coated with poly-D-lysine. Cells were transfected 24 hours after plating with Lipofectamine™ 3000 (Thermo Fisher Scientific, Inc) at a ratio of 3 μL reagent:1 μL DNA, according to manufacturer's instructions, with […] plasmids of mFAPs or mFAP fusions (1.25 μg mCherry™ plasmid was added to the cytosolic constructs as a transfection control). Right before imaging, cell media was replaced with FluorBrite™ DMEM (Thermo Fisher Scientific, Inc) media supplemented with GlutaMax™ (Thermo Fisher Scientific, Inc) and 10% v/v FBS, and 20 μM DFHBI. […] A white light laser of 488 was used to excite the DFHBI and detected by a HyD detector, over a range of 495-550 nm. […]

[11] = pH-dependent fluorescence of mFAP/DFHBI complexes; assay type: biochemical
Source text: FIG. 22: In vitro characterization of the pH-responsive mFAP_pH and comparison to the existing pHRed system and pH-unresponsive mFAP2b. (a-c) Chemical basis of pH-responsiveness in mFAP_pH. (a) Chemical structures of protonated tautomers and deprotonated resonance structures of DFHBI. […] The arrangement of intermolecular hydrogen bonds in the binding site of mFAP2b (c, binding pocket of the design model with the phenolate form of DFHBI) has low shape complementarity to the protonated DFHBI tautomers. The mutations W27M and W93F improve binding to the protonated DFHBI tautomers (b, model of mFAP_pH binding pocket with the phenolic form of DFHBI). […] (d) Normalized fluorescence excitation spectra of the mFAP_pH/DFHBI complex are shown for a pH titration from pH 3.63 to pH 8.38. (e) mFAP_pH normalized fluorescence emission spectra at pH 3.63 and pH 8.38. […] (f) Binding of mFAP_pH to both the phenolic and phenolate forms of DFHBI results in a high fluorescence ratio fold-change from low to high pH. (h, i) pH-dependent fluorescence of the mFAPpH/DFHBI complex compared to the previously described pHRed system. […] (i) Fluorescence ratios (Fratio) of unnormalized fluorescence measurements from panel (h) for mFAP_pH and pHRed. […]
We sought to further improve fluorescence of the complex at acidic and neutral pH and built a site-directed mutagenesis (SDM) library at 15 positions of mFAP2.1. […]

[12] = Circular dichroism, thermal and GuHCl denaturation; assay type: physicochemical; conditions: CD in the absence of DFHBI, pH 2.93
Description: Circular dichroism (CD). Purified protein samples were prepared at 0.5 mg/ml in 20 mM Tris buffer (150 mM NaCl, pH8.0) or PBS buffer (25 mM phosphate, 150 mM NaCl, pH7.4). Wavelength scans from 195 nm to 260 nm were recorded at 25 degrees Celsius, 75 degrees Celsius, 95 degrees Celsius and cooling back to 25 degrees Celsius. Thermal denaturation was monitored at 220 nm or 226 nm from 25 degrees Celsius to 95 degrees Celsius. Near-UV wavelength scan from 240 nm to 320 nm and tryptophan fluorescence emission were recorded in the absence and presence of 5M guanidinium chloride (GuHCl). Chemical denaturation in GuHCl was monitored by both tryptophan fluorescence and near-UV CD signal at 285 nm. The concentration of the GuHCl stock solution was measured with a refractometer (Spectronic Instruments, Inc). Far-UV CD experiments were performed on an AVIV model 420 CD spectrometer (Aviv Biomedical, Inc). Near-UV CD and tryptophan fluorescence experiments were performed on a Jasco J-1500 CD spectrometer (Jasco, Inc). Protein concentrations were determined by 280 nm absorbance with a NanoDrop™spectrophotometer (ThermoScientific, Inc). Melting temperatures were estimated by smoothing the sparse data with a Savitsky-Golay filter of order 3 and approximating the smoothed data with a cubic spline to compute derivatives. Reported Tm values are the inflection points of the melting curves.

[13] = previously reported value, Table 4
[14] = n=1 titration, ± SD of the fit, Table 3C, read-out: DFHBI Kd

Molecule | Kd [4] [µM] | Fluorescence brightness, 100 nM DFHBI [5] | Fluorescence brightness, 10 μM DFHBI [5] | Kd [6] [µM] | Kd [7, 14] [µM] | Fluorescence brightness, 100 nM DFHO [8] | Fluorescence brightness, 10 μM DFHO [8] | Fluorescence brightness, 100 nM DFHBI-1T [9] | Fluorescence brightness, 10 μM DFHBI-1T [9] | other results
CC1=N/C(=C\c2cc(F)c(O)c(F)c2)C(=O)N1C [DFHBI, (Z)-4-(3,5-difluoro-4-hydroxybenzylidene)-1,2-dimethyl-1H-imidazol-5(4H)-one] | – | – | – | – | – | – | – | – | – | Absolute Quantum Yield ([1]; previously reported value [1], Table 4): 0.001^#; λabs [1, 13]: 418^†# nm; λem [1, 13]: 489^† nm; λex [1, 13]: 423^† nm; Reported Quantum Yield ([1]; previously reported value): 0.0007^†; Relative Quantum Yield ([1]; reported value (ref 25), Table 2): 0.0007***; Extinction Coefficient ([2]; Table 2): 31,935 M^−1cm^−1; Absolute Quantum Yield ([2]; integrating sphere, Table 2): 0.001; λabs ([2]; peak absorbance wavelength, Table 2): 418 nm; pKa [3]: 5.5
B1 | 43.2 ± 7.01 | 0.12 ± 0.0 | 0.14 ± 0.03 | 22.7 ± 9.66 | 1.15 ± 0.16 | 0.01 ± 0.0 | 0.01 ± 0.0 | 0.15 ± 0.01 | 0.33 ± 0.04 | Quantum yield in complex with DFHBI ([2]; absolute): 2.1%; Kd ([7]; read-out: Dissociation constant of DFHBI): ~0.2 µM and ~0.18 µM; In vivo fluorescence activation [10]: showed in vivo fluorescence activation
B2 | – | 0.13 ± 0.0 | 0.07 ± 0.02 | – | – | 0.01 ± 0.0 | 0.01 ± 0.0 | 0.34 ± 0.01 | 0.25 ± 0.01 | Fluorescence in the presence of DFHBI at acidic pH ([11]; pH 3.66): higher fluorescence; Stability at low pH [12]: improved stability
B3 | 43.2 ± 7.01 | 0.13 ± 0.0 | 0.17 ± 0.03 | 22.7 ± 9.66 | 1.15 ± 0.16 | 0.01 ± 0.0 | 0.01 ± 0.0 | 0.33 ± 0.02 | 0.55 ± 0.02 | Fluorescence ratio fold-change, higher than mFAP2.1 ([11]; across pH 3.66-7.36): ~1.3 fold
